# Laboratory results taken from patent US20210292396A1 (INTERNATIONAL AIDS VACCINE INITIATIVE, published 2021).
# Assays:
# Experiment in all cases: cell-based or functional assay
# [1] = target: HIV Env of isolate T250-4 (HIV)
# [2] = target: HIV Env of isolate T251-18 (HIV)
# [3] = target: HIV Env of isolate R1166.c01 (HIV)
# [4] = target: HIV Env of isolate R3265.c06 (HIV)
# [5] = target: HIV Env of isolate BJOX015000.11.5 (HIV)
# [6] = target: HIV Env of isolate X1254_c3 (HIV)
# [7] = target: HIV Env of isolate X1632_S2_B10 (HIV)
# [8] = target: HIV Env of isolate 3817.v2.c59 (HIV)
# [9] = target: HIV Env of isolate 6540.v4.c1 (HIV)
# [10] = target: HIV Env of isolate SC422661.8 (HIV)
# HIV Env of isolate PVO.4 = HIV Env of isolate PVO.4 (HIV)
# [11] = target: HIV Env of isolate MS208.A1 (HIV)
# [12] = target: HIV Env of isolate T251-18 (HIV); remark: listed apart in the source
# [13] = target: HIV Env of isolate 3817.v2.c59 (HIV); remark: listed apart in the source
# [14] = target: HIV Env of isolate 6480.v4.c25 (HIV)
# [15] = target: HIV Env of isolate 6952.v1.c20 (HIV)
# [16] = target: HIV Env of isolate 3103.v3.c10 (HIV)
# [17] = target: HIV Env of isolate 6535.3 (HIV)
# [18] = target: HIV Env of isolate QH0692.42 (HIV)
# [19] = target: HIV Env of isolate SC422661.8 (HIV); remark: listed apart in the source
# [20] = target: HIV Env of isolate TRO.11 (HIV)
# [21] = target: HIV Env of isolate RHPA4259.7 (HIV)
# [22] = target: HIV Env of isolate REJO4541.67 (HIV)
# [23] = target: HIV Env of isolate WEAU_d15_410_5017 (HIV)
# [24] = target: HIV Env of isolate 1054_07_TC4_1499 (HIV)
# [25] = target: HIV Env of isolate 1056_10_TA11_1826 (HIV)
# [26] = target: HIV Env of isolate Du156.12 (HIV)
# [27] = target: HIV Env of isolate Du422.1 (HIV)
# [28] = target: HIV Env of isolate ZM214M.PL15 (HIV)
# [29] = target: HIV Env of isolate ZM53M.PB12 (HIV)
# [30] = target: HIV Env of isolate CAP210.2.00.E8 (HIV)
# [31] = target: HIV Env of isolate 7030102001E5(Rev-) (HIV)
# [32] = target: HIV Env of isolate Ce704809221_1B3 (HIV)
# [33] = target: HIV Env of isolate 0330.v4.c3 (HIV)
# [34] = target: HIV Env of isolate 191084_B7-19 (HIV)
# [35] = target: HIV Env of isolate T278-50 (HIV)
# [36] = target: HIV Env of isolate BJOX028000.10.3 (HIV)
# [37] = target: HIV Env of isolate 231965.c01 (HIV)
# [38] = target: HIV Env of isolate 6041.v3.c23 (HIV)
# [39] = target: HIV Env of isolate 6540.v4.c1 (HIV); remark: listed apart in the source
# [40] = target: HIV Env of isolate ZM249M.PL1 (HIV)
# [41] = target: HIV Env of isolate HIV-0013095-2.11 (HIV)
# [42] = target: HIV Env of isolate HIV-16055-2.3 (HIV)
# [43] = target: HIV Env of isolate Ce2060_G9 (HIV)
# [44] = target: HIV Env of isolate 249M_B10 (HIV)
binder,measurement,setting,value
"PGT-121 (antibody, V domains shown) VH: QMQLQESGPGLVKPSETLSLTCSVSGASISDSYWSWIRRSPGKGLEWIGYVHKSGDTNYSPSLKSRVNLSLDTSKNQVSLSLVAATAADSGKYYCARTLHGRRIYGIVAFNEWFTYFYMDVWGNGTQVTVSS VL: SDISVAPGETARISCGEKSLGSRAVQWYQHRAGQAPSLIIYNNQDRPSGIPERFSGSPDSPFGTTATLTITSVEAGDEADYYCHIWDSRVPTKWVFGGGTTLTVLG",neutralization IC50,[1],0.001 µg/mL
same,neutralization IC50,[2],29 µg/mL
same,neutralization IC50,[3],> 50 µg/mL
same,neutralization IC50,[4],> 50 µg/mL
same,neutralization IC50,[5],> 50 µg/mL
same,neutralization IC50,[6],0.014 µg/mL
same,neutralization IC50,[7],> 50 µg/mL
same,neutralization IC50,[8],18.9 µg/mL
same,neutralization IC50,[9],> 50 µg/mL
same,neutralization IC50,[10],0.038 µg/mL
same,neutralization IC50,HIV Env of isolate PVO.4,0.098 µg/mL
same,neutralization IC50,[11],> 50 µg/mL
same,neutralization (Table 6 value),[12],1.16
same,neutralization (Table 6 value),[13],0.00949
same,neutralization (Table 6 value),[14],0.000306
same,neutralization (Table 6 value),[15],0.000292
same,neutralization (Table 6 value),[16],0.0206
same,neutralization (Table 6 value),[17],0.00325
same,neutralization (Table 6 value),[18],0.176
same,neutralization (Table 6 value),[19],0.0272
same,neutralization (Table 6 value),[20],0.00843
same,neutralization (Table 6 value),[21],0.00915
same,neutralization (Table 6 value),[22],0.286
same,neutralization (Table 6 value),[23],0.0144
same,neutralization (Table 6 value),[24],0.0334
same,neutralization (Table 6 value),[25],0.0162
same,neutralization (Table 6 value),[26],0.00534
same,neutralization (Table 6 value),[27],0.00172
same,neutralization (Table 6 value),[28],0.119
same,neutralization (Table 6 value),[29],0.00038
same,neutralization (Table 6 value),[30],0.618
same,neutralization (Table 6 value),[31],0.00679
same,neutralization (Table 6 value),[32],0.028
same,neutralization (Table 6 value),[33],0.0513
same,neutralization (Table 6 value),[34],0.0247
"ePGT121.15.H1.L1 (antibody, V domains shown) VH: QMQLQESGPGLVKPGETLSLTCSVSGASISSSYWSWLRETPGKGLEWIGYTHHSGDTNYAPSLKSRVHLGLHPSKNQVSLSLTSVTAADTAVYYCARTLHGRRIYGVVAFNEWFTYFYWEVWGNGTQVTVSS VL: SDISVAPGETVRISCGGESIGSRAVQWYQHRAGQAPKLIIYNNQDRPPGIPERFSGSPDIDFGTTATLTITNVEAGDEATYYCHIWDSRRPTNWVFGGGTTLTVL",neutralization IC50,[1],0.0002 µg/mL
same,neutralization IC50,[2],0.0055 µg/mL
same,neutralization IC50,[3],> 50 µg/mL
same,neutralization IC50,[4],> 50 µg/mL
same,neutralization IC50,[5],> 50 µg/mL
same,neutralization IC50,[6],0.0014 µg/mL
same,neutralization IC50,[7],> 50 µg/mL
same,neutralization IC50,[8],0.724 µg/mL
same,neutralization IC50,[9],> 50 µg/mL
same,neutralization IC50,[10],0.0005 µg/mL
same,neutralization IC50,HIV Env of isolate PVO.4,0.0004 µg/mL
same,neutralization IC50,[11],> 50 µg/mL
same,neutralization (Table 6 value),[12],0.0274
same,neutralization (Table 6 value),[35],0.0232
same,neutralization (Table 6 value),[36],0.0278
same,neutralization (Table 6 value),[37],0.68
same,neutralization (Table 6 value),[13],0.00495
same,neutralization (Table 6 value),[14],0.000305
same,neutralization (Table 6 value),[15],0.00081
same,neutralization (Table 6 value),[38],0.396
same,neutralization (Table 6 value),[39],0.249
same,neutralization (Table 6 value),[16],0.00509
same,neutralization (Table 6 value),[17],0.00121
same,neutralization (Table 6 value),[18],0.0149
same,neutralization (Table 6 value),[19],0.00372
same,neutralization (Table 6 value),[20],0.00156
same,neutralization (Table 6 value),[21],0.00233
same,neutralization (Table 6 value),[22],0.311
same,neutralization (Table 6 value),[23],0.00209
same,neutralization (Table 6 value),[24],0.00167
same,neutralization (Table 6 value),[25],0.00391
same,neutralization (Table 6 value),[26],0.00124
same,neutralization (Table 6 value),[27],0.00243
same,neutralization (Table 6 value),[28],0.0146
same,neutralization (Table 6 value),[40],0.00404
same,neutralization (Table 6 value),[29],0.00206
same,neutralization (Table 6 value),[30],0.0229
same,neutralization (Table 6 value),[41],1.07
same,neutralization (Table 6 value),[42],1.07
same,neutralization (Table 6 value),[43],0.0102
same,neutralization (Table 6 value),[44],0.00639
same,neutralization (Table 6 value),[31],0.00261
same,neutralization (Table 6 value),[32],0.00162
same,neutralization (Table 6 value),[33],0.00621
same,neutralization (Table 6 value),[34],0.00279
"ePGT121.15.H6.L1 (antibody, V domains shown) VH: QMQLQESGPGLVKPGETLSLTCSVSGASISSSYWSWLRETPGKGLEWIGYTHHSGDTNYAPSLKSRVHLGLHPSKNQVSLSLTSVTAADTAVYYCARTLHGRRIYGVVAFNEFFTYFYWEVWGKGTQVTVSS VL: SDISVAPGETVRISCGGESIGSRAVQWYQHRAGQAPKLIIYNNQDRPPGIPERFSGSPDIDFGTTATLTITNVEAGDEATYYCHIWDSRRPTNWVFGGGTTLTVL",neutralization (Table 6 value),[12],0.0274
same,neutralization (Table 6 value),[35],0.0263
same,neutralization (Table 6 value),[36],0.00171
same,neutralization (Table 6 value),[37],1.27
same,neutralization (Table 6 value),[13],0.00361
same,neutralization (Table 6 value),[14],0.000826
same,neutralization (Table 6 value),[15],0.000793
same,neutralization (Table 6 value),[38],0.417
same,neutralization (Table 6 value),[39],0.612
same,neutralization (Table 6 value),[16],0.00513
same,neutralization (Table 6 value),[17],0.00121
same,neutralization (Table 6 value),[18],0.0126
same,neutralization (Table 6 value),[19],0.00285
same,neutralization (Table 6 value),[20],0.0014
same,neutralization (Table 6 value),[21],0.00225
same,neutralization (Table 6 value),[22],8e-06
same,neutralization (Table 6 value),[23],0.00205
same,neutralization (Table 6 value),[24],0.00129
same,neutralization (Table 6 value),[25],0.00186
same,neutralization (Table 6 value),[26],0.000917
same,neutralization (Table 6 value),[27],0.00264
same,neutralization (Table 6 value),[28],0.00993
same,neutralization (Table 6 value),[40],0.0127
same,neutralization (Table 6 value),[29],0.00204
same,neutralization (Table 6 value),[30],0.0311
same,neutralization (Table 6 value),[41],0.635
same,neutralization (Table 6 value),[42],0.635
same,neutralization (Table 6 value),[43],0.0369
same,neutralization (Table 6 value),[44],0.0118
same,neutralization (Table 6 value),[31],0.00241
same,neutralization (Table 6 value),[32],0.00231
same,neutralization (Table 6 value),[33],0.00764
same,neutralization (Table 6 value),[34],0.00312
